The values below come from patent publication US20180231562A1 (UCB, published 2018).

The target in experiment [1] is T1, human TNFα in complex with compound (39) (human, UniProt P01375 77-233).
T1 construct: also called Human TNFα + compound (39); compound-distorted human TNFα
Description: SPR (BIAcore T200), against apo human TNFα. For orientation: In SPR one partner is held on a chip, and binding of the other changes the refractive index at the surface.

For experiment [2], the target named is T2, human TNFα in complex with compound (15) (human, UniProt P01375 77-233).
T2 construct: also called Human TNFα + compound 15; Human TNFα + compound (15)
T2 sequence (P01375 77-233 limits assumed, one chain of several): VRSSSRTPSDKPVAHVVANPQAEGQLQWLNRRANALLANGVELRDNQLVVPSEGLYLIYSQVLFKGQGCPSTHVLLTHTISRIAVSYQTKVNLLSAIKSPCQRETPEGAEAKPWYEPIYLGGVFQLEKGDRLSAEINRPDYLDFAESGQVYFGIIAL
Kind of experiment: SPR (BIAcore T200), against apo human TNFα.

T1 sequence (P01375 77-233 limits assumed, one chain of several): as above

B1: CA185_01979 (antibody, mouse IgG1, kappa, V domains shown)
VH: EVHLVESGPGLVKPSQSLSLTCSVTGYSITNSYWDWIRKFPGNKMEWMGYINYSGSTGYNPSLKSRISISRDTSNNQFFLQLNSITTEDTATYYCARGTYGYNAYHFDYWGRGVMVTVSS
VL: DIQMTQSPASLSASLEEIVTITCQASQDIGNWLSWYQQKPGKSPHLLIYGTTSLADGVPSRFSGSRSGTQYSLKISGLQVADIGIYVCLQAYSTPFTFGSGTKLEIKR
notes: also called CA185_01979.0; CA185_1979
Turning to B1, the “selective binding over apo human TNFα (log)” value in experiment [1] and in experiment [2] was > 2 log in each case.
